The values below are quoted from earlier work in publication PMC5394478.

Data set [1] addresses IFNLR1 Box1-Box2 (Homo sapiens) (UniProt Q8IU57). Kind of data set: Biolayer Interferometry. On the technique in general: BLI is a label-free optical method that tracks binding on a fibre tip over time.
The target in data set [2] is IFNLR1 Box1 (Homo sapiens) (UniProt Q8IU57). Kind of data set: Biolayer Interferometry.

JAK1 FERM-SH2 (from UniProt P23458): the Kd (usually the free concentration of one partner at which half of the binding sites on the other are occupied at equilibrium, for simple one-to-one binding) in data set [1] is 70 nM; in data set [2] it was 1200 nM.
